Consider one sequence from paper PMC11237882 (Protein Science : A Publication of the Protein Society, 2024).

The target of one experiment is Homer1 EVH1 domain (Homo sapiens, UniProt Q86YM7). To be noted: read-out: K D ^Homer1; pH 7.6; SD.
For experiment [1], the target named is ddEVH1 (D. discoideum EVH1 domain of ddVASP) (Dictyostelium discoideum, UniProt Q5TJ65).
For experiment [2], the system named is ENAH EVH1 domain tetramers. The experiment in a line: Peptide SPOT array, ENAH EVH1 domain tetramers. The format is binding, human. Particulars: SPOT intensities, tetrameric EVH1, 0.5 μM monomer. Here is the method: Protein expression was carried out as above.
ABI3 substitution and overlapping motif SPOT arrays were synthesized at the MIT Biopolymer Facility using an Intavis SPOT synthesis peptide arrayer system. At the N‐terminus, the 20‐mer peptides were capped with a Gly‐Ser linker and acetylated. The peptides were linked to the cellulose membrane by a C‐terminal PEG spacer. For the overlapping motif array, because many of the peptide sequences contain additional Ena/VASP and Homer motifs, each peptide was also synthesized as a control where the internal proline tract was mutated to poly‐glycine. The protocol for blocking and probing the membrane was adapted from Frank and Dübel ([2006]). […] The following day, the array was washed in T‐TBS (TBS + 0.05% Tween‐20) and then incubated with the protein sample in MBS (+1 μM DTT) for 3 h at room temperature. All array experiments were carried out with streptavidin‐Cy3 (Thermo Fisher) pre‐tetramerized EVH1 at a final monomer concentration of 0.5 μM. The membrane was washed three times in T‐TBS prior to scanning on a GE Amersham Imager 680. SPOT intensities were calculated using the ImageJ analysis software (Abràmoff et al., [2004]). No background correction was performed. For the overlapping peptides, the final intensity was calculated as the difference between the intensity of the wild‐type and motif knockout control. […]

Chain of ddEVH1 (D. discoideum EVH1 domain of ddVASP) (Q5TJ65 with tags, fused parts or gaps): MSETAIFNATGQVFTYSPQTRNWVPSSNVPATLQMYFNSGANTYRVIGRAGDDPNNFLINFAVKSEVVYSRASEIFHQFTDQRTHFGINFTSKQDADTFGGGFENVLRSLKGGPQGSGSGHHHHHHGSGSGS
Chain of Homer1 EVH1 domain (Q86YM7 with tags, fused parts or gaps): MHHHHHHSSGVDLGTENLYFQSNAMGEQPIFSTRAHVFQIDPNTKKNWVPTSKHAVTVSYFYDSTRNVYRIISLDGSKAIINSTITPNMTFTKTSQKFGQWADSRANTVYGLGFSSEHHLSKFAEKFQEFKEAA

Regarding DIESDFPPPPEDFPAADELP [FAT1], the Kd with Homer1 EVH1 domain stood at 98 ± 7 µM. The “ddEVH1 binding, result in words” value in experiment [1] is given as “bound poorly”. Further, the “Binding to ENAH relative to Homer1 EVH1 in the SPOT array assay” value in experiment [2] is “two‐ to three‐fold better”.
